Experimental data reported in the supplement of paper PMC10567573.

B1: PPFIA4 (parent)
chain: YAGNLHESGVHGALLALDENFDHN

Variants of: B1
Assay: protein stability index of a GFP-peptide fusion (GPS, HEK-293T) (PSI 1-6); higher = more stable
Conditions: c terminus: a fixed tail appended
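Also: lentivirally expressed fusions sorted by FACS into six bins by GFP to DsRed ratio, PSI derived from sequencing read proportions per bin multiplied by bin number.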

Q: For YYGNLHESGVHGALLALDENFDHN, which protein stability index is on record?
A: 3.07

Q: With YRGNLHESGVHGALLALDENFDHN as the variant, how does the protein stability index read?
A: 4.27

Q: Which protein stability index does the source give for YQGNLHESGVHGALLALDENFDHN here?
A: 3.23

Q: For YPGNLHESGVHGALLALDENFDHN, which protein stability index is on record?
A: 3.96

Q: With YAGNLHASGVHGALLALDENFDHN as the variant, how does the protein stability index read?
A: 1.9

Q: For YAGNLHYSGVHGALLALDENFDHN, which protein stability index is on record?
A: 1.85

Q: Which protein stability index does the source give for YAGNLHSSGVHGALLALDENFDHN here?
A: 2.58

Q: For YAGNLHESGVHGAVLALDENFDHN, which protein stability index is on record?
A: 2.16

Q: Which protein stability index does the source give for YAGNLHESGVHGALLALLENFDHN here?
A: 1.76

Q: With YAGNLHESGVHGALLALEENFDHN as the variant, how does the protein stability index read?
A: 2.82

Q: For YAGNLHESGVHGALLALRENFDHN, which protein stability index is on record?
A: 2.55

Q: Which protein stability index does the source give for YAGNLHESGVHGALLALGENFDHN here?
A: 1.95

Q: With YAGNLHESGVHGALLALMENFDHN as the variant, how does the protein stability index read?
A: 2.38

Q: With YAGNLHESGVHGALLALAENFDHN as the variant, how does the protein stability index read?
A: 1.66

Q: Which protein stability index does the source give for YAGNLHESGVHGALLANDENFDHN here?
A: 3.86

Q: With YAGNLHESGVHGALLAFDENFDHN as the variant, how does the protein stability index read?
A: 2.16

Q: With YAGNLHESGVHGALLASDENFDHN as the variant, how does the protein stability index read?
A: 4.03

Q: With YAGNLHESGVHGALLAVDENFDHN as the variant, how does the protein stability index read?
A: 2.47

Q: For YAGNLHESGVHGALLARDENFDHN, which protein stability index is on record?
A: 3.31

Q: For RAGNLHESGVHGALLALDENFDHN, which protein stability index is on record?
A: 3.7

Q: With TAGNLHESGVHGALLALDENFDHN as the variant, how does the protein stability index read?
A: 4.26

Q: With MAGNLHESGVHGALLALDENFDHN as the variant, how does the protein stability index read?
A: 4.81

Q: For SAGNLHESGVHGALLALDENFDHN, which protein stability index is on record?
A: 5.03

Q: For KAGNLHESGVHGALLALDENFDHN, which protein stability index is on record?
A: 4.5

Q: Which protein stability index does the source give for CAGNLHESGVHGALLALDENFDHN here?
A: 3.94

Q: Which protein stability index does the source give for YAGNLHESGVHGALLALDENFDEN here?
A: 2.25

Q: Which protein stability index does the source give for YAGNLHESGVHGALLALDENFDFN here?
A: 2.12

Q: For YAGNLHESGVHGALLALDENFDNN, which protein stability index is on record?
A: 2.63

Q: For YAGNLHESWVHGALLALDENFDHN, which protein stability index is on record?
A: 2.94

Q: Which protein stability index does the source give for YAGNLHESYVHGALLALDENFDHN here?
A: 2.34

Q: Which protein stability index does the source give for YAGNLHESNVHGALLALDENFDHN here?
A: 3.1

Q: With YAGNLHESLVHGALLALDENFDHN as the variant, how does the protein stability index read?
A: 2.1

Q: With YAGNLHESPVHGALLALDENFDHN as the variant, how does the protein stability index read?
A: 3.59

Q: With YAGNLHESGVHGALLALDERFDHN as the variant, how does the protein stability index read?
A: 2.25

Q: With YAGNLHESGVHGALLALDEIFDHN as the variant, how does the protein stability index read?
A: 1.79

Q: Which protein stability index does the source give for YAGNLHESGVHGALLALDEKFDHN here?
A: 2.23

Q: With YAGNLHESGVHGALLALDEGFDHN as the variant, how does the protein stability index read?
A: 3.1

Q: Which protein stability index does the source give for YAGNLHESGVHGALLALDEMFDHN here?
A: 2.09

Q: Which protein stability index does the source give for YAGNLHESGVHGALLALDEFFDHN here?
A: 2.17

Q: Which protein stability index does the source give for YAGNLHESGVHGALSALDENFDHN here?
A: 3.87

Q: For YAGNLHESGVHGALGALDENFDHN, which protein stability index is on record?
A: 3.54

Q: With YAGNLHESGVHGALIALDENFDHN as the variant, how does the protein stability index read?
A: 2.22

Q: Which protein stability index does the source give for YAGNLHESGVKGALLALDENFDHN here?
A: 3.33

Q: Which protein stability index does the source give for YAGNLHESGVMGALLALDENFDHN here?
A: 1.87

Q: For YAGNLHESGVEGALLALDENFDHN, which protein stability index is on record?
A: 3.19

Q: For YAGNLHESGVWGALLALDENFDHN, which protein stability index is on record?
A: 3.06

Q: With YAGNLHEQGVHGALLALDENFDHN as the variant, how does the protein stability index read?
A: 2.71

Q: With YAGNLHERGVHGALLALDENFDHN as the variant, how does the protein stability index read?
A: 2.02

Q: With YAGNLHEYGVHGALLALDENFDHN as the variant, how does the protein stability index read?
A: 2.28

Q: With YAGNLHEDGVHGALLALDENFDHN as the variant, how does the protein stability index read?
A: 3.16

Q: With YAGNLHEMGVHGALLALDENFDHN as the variant, how does the protein stability index read?
A: 2.19

Q: For YAGNLHESGVHGALLALDENFCHN, which protein stability index is on record?
A: 1.65

Q: Which protein stability index does the source give for YAGNLHESGVHGALLALDENFSHN here?
A: 2.02

Q: Which protein stability index does the source give for YAGNLHESGVHGALLCLDENFDHN here?
A: 2.39

Q: For YAGNLHESGVHGALLSLDENFDHN, which protein stability index is on record?
A: 3.2

Q: With YAGNLHESGVHGALLDLDENFDHN as the variant, how does the protein stability index read?
A: 3.85

Q: For YAGNLHESGVHGALLKLDENFDHN, which protein stability index is on record?
A: 2.73

Q: Which protein stability index does the source give for YAGNLHESGVHGALLFLDENFDHN here?
A: 3.06

Q: With YAGNLHESGVHGALLPLDENFDHN as the variant, how does the protein stability index read?
A: 3.43

Q: Which protein stability index does the source give for YAGNLHESGVHGALLRLDENFDHN here?
A: 2.99

Q: Which protein stability index does the source give for YAGNLHESGVHRALLALDENFDHN here?
A: 2.74

Q: With YAGNLHESGVHKALLALDENFDHN as the variant, how does the protein stability index read?
A: 2.97

Q: For YAGNLHESGVHQALLALDENFDHN, which protein stability index is on record?
A: 3.56

Q: Which protein stability index does the source give for YAGNLHESGVHCALLALDENFDHN here?
A: 2.13

Q: With YAGNLHESGVHAALLALDENFDHN as the variant, how does the protein stability index read?
A: 2.77

Q: For YAGNLHESGVHIALLALDENFDHN, which protein stability index is on record?
A: 1.94

Q: Which protein stability index does the source give for YAGHLHESGVHGALLALDENFDHN here?
A: 2.73

Q: For YAGLLHESGVHGALLALDENFDHN, which protein stability index is on record?
A: 2.33

Q: With YAGNLHESGVHGALLALDENIDHN as the variant, how does the protein stability index read?
A: 2.69

Q: For YAGNLHESGVHGALLALDENSDHN, which protein stability index is on record?
A: 3.56

Q: For YAGNLHESGVHGALLALDENGDHN, which protein stability index is on record?
A: 3.58

Q: For YAGNLHESGVHGALLALDENDDHN, which protein stability index is on record?
A: 3.92

Q: With YAGNLEESGVHGALLALDENFDHN as the variant, how does the protein stability index read?
A: 3.7

Q: With YAGNLPESGVHGALLALDENFDHN as the variant, how does the protein stability index read?
A: 2.98

Q: Which protein stability index does the source give for YAGNLYESGVHGALLALDENFDHN here?
A: 1.88

Q: For YANNLHESGVHGALLALDENFDHN, which protein stability index is on record?
A: 2.98

Q: Which protein stability index does the source give for YARNLHESGVHGALLALDENFDHN here?
A: 2.72

Q: With YALNLHESGVHGALLALDENFDHN as the variant, how does the protein stability index read?
A: 3.73

Q: For YAGNLHESGCHGALLALDENFDHN, which protein stability index is on record?
A: 2.06

Q: For YAGNLHESGHHGALLALDENFDHN, which protein stability index is on record?
A: 2.7

Q: For YAGNLHESGNHGALLALDENFDHN, which protein stability index is on record?
A: 3.23

Q: Which protein stability index does the source give for YAGNLHESGFHGALLALDENFDHN here?
A: 2.25

Q: For YAGNRHESGVHGALLALDENFDHN, which protein stability index is on record?
A: 3.11

Q: Which protein stability index does the source give for YAGNWHESGVHGALLALDENFDHN here?
A: 3.46

Q: Which protein stability index does the source give for YAGNYHESGVHGALLALDENFDHN here?
A: 1.82

Q: With YAGNSHESGVHGALLALDENFDHN as the variant, how does the protein stability index read?
A: 2.72

Q: Which protein stability index does the source give for YAGNVHESGVHGALLALDENFDHN here?
A: 2.12

Q: For YAGNHHESGVHGALLALDENFDHN, which protein stability index is on record?
A: 2.38

Q: With YAGNLHESGVHGALLALDCNFDHN as the variant, how does the protein stability index read?
A: 1.33

Q: For YAGNLHESGVHGALLALDINFDHN, which protein stability index is on record?
A: 2.97

Q: With YAGNLHESGVHGTLLALDENFDHN as the variant, how does the protein stability index read?
A: 2.86

Q: With YAGNLHESGVHGCLLALDENFDHN as the variant, how does the protein stability index read?
A: 2.21

Q: Which protein stability index does the source give for YAGNLHESGVHGELLALDENFDHN here?
A: 4.13

Q: Which protein stability index does the source give for YAGNLHESGVHGALLALDENFDHE here?
A: 3.49
